In publication PMC8591511, “Flexible open conformation of the AP-3 complex explains its role in cargo recruitment at the Golgi” (The Journal of Biological Chemistry, 2021):
Blank lines part the entries; values can stand above or below the molecule they belong to.

T1: Apl5 (δ-subunit of yeast AP-3) with C-terminal 3xFLAG-tag (S. cerevisiae, UniProt Q08951 1-932)
T1 construct: Apl5, δ-subunit of the yeast AP-3 complex; ear domain aa 639–932; also called δ-adaptin; not shown: 3xFLAG, C-terminal, kept
T1 sequence (looked up): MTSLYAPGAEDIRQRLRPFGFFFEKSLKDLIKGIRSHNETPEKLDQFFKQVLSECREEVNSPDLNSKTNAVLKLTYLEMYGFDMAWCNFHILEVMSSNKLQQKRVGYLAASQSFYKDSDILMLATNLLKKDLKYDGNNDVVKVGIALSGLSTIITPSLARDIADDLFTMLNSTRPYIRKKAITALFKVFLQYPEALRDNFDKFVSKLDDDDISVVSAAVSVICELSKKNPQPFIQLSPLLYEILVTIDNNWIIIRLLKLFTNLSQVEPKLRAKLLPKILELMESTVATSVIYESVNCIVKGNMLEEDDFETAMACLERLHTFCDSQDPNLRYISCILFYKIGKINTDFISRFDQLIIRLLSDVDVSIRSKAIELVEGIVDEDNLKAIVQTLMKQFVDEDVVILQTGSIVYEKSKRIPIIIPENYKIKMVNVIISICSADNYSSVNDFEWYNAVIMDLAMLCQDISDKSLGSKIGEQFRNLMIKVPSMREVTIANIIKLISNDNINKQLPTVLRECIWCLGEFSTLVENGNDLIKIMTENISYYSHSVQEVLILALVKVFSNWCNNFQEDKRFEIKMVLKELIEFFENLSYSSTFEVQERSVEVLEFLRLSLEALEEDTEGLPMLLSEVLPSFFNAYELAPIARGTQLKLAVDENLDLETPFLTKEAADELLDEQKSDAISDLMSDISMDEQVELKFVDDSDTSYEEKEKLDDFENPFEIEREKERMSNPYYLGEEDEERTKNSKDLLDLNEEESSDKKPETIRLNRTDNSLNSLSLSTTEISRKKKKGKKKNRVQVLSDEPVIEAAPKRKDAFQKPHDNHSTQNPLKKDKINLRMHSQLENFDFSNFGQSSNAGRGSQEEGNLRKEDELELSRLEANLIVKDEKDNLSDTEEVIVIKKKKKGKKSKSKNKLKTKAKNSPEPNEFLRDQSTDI

B1: Aps3 (σ-subunit of yeast AP-3) (natural protein, S. cerevisiae, UniProt P47064 1-194, looked up)
chain: MIHAVLIFNKKCQPRLVKFYTPVDLPKQKLLLEQVYELISQRNSDFQSSFLVTPPSLLLSNENNNDEVNNEDIQIIYKNYATLYFTFIVDDQESELAILDLIQTFVESLDRCFTEVNELDLIFNWQTLESVLEEIVQGGMVIETNVNRIVASVDELNKAAESTDSKIGRLTSTGFGSALQAFAQGGFAQWATGQ
notes: Aps3, σ-subunit of the yeast AP-3 complex
B2: Apm3 (μ3-subunit of yeast AP-3) (natural protein, S. cerevisiae, UniProt P38153 1-483, looked up)
chain: MYLSFYITDTKNKLIFQYLLGATAPSFKHLWTRVQSTCPQLLEDSSSDDYLDHSMVGRDLEVYKYFSVINKLNYWCLASTSKSKGPLDCFTFLETIDRILLEYFDKDKLSIKKIVNNYDRISLIFNCCVEAGEPNVSDMLYVNKIKEAVPERSDLSKFISSTAHNLQQAVQLPQQRQQQLQQNQISRGSNSLIENEEIVPWRTSRASKHENNELYVDLLETFHVVFEKKKSHLRLLTGSIHGIVDVRSYLNDNPLVAVKLNTMGNDIGIPSLHDCVEINDGVFSPSNITFIPPDGKFRLLEYSVDLSSQVKQSGVRMNSIGLMSLHFQNGLGKDSDEFELSLNIENFKKVSQVDDLKIDLQFNVENADPNEIAYKIKILRNTHGRFENSIIMGQGQWIFDKSTATGTVPVLRGCIEYENTGPNFTKKVDLQTVSLEYSYIGQSASGIYVEAIDIVSGLTIGKNTKLYKGAKYKTQTGNFQVRL
notes: Apm3, μ3-subunit of the yeast AP-3 complex; N-terminal domain aa 1–138, linker aa 139–211
B3: Apl6 (β3-subunit of yeast AP-3) (natural protein, S. cerevisiae, UniProt P46682 1-809, looked up)
chain: MVDSIHRIASALDTAKVITREAAAVATSKLGESSYTYYSQNINPQQLVTLLNSRNSREVRDAMKRIISIMASDDDSIDVQLYFADVVKNITTNDTKVKRLIHLYLLRFAENDPNLTLLSINSLQKSLSDSNSELRCFALSALSDMKMSSLAPIILHTVKKLVTDPSAMVRGEVALAIIKLYRAGKNDYHEELLDILKELMADTDPKVISCAVLAYKECYADHLELLHGHFRRYCRIIKQLDSWSQSYLIELLIKYCKQYLPKPTVVDKSSEGSPRSCPLPDKYNEIEYPSYEVVNDPDLDLFLQSLNCLIYSSNPTVILSCCNALYQLASPLQMKNTKFIEALVRTVTMTENQGNKEMLLQAIHFLSILDQTLFLPYTKKFYVFPKDPIVASIWKIQILSTLINESNVKEIFKELKYYVASAHFPENVVIMAVKSLSRCGQLSTSWESHVMKWLIDHMESHNLSASVLDAYVNVIRMLVQKNPTKHLRIIFKLADLLTVQTSLADNARAGIVWLFGEIASIEFKICPDVLRRLIQNFSNEGPETRCQILVLSAKLLSYDIDNFKQAQVTGSEENNQNPPYYDFSGSRISQMYNAVLYLAKYDDEFDIRDRARMISSLFDSGKYEIVSLLLQAPKPTARSDDFIVSARLETHTPEIKEFFRMLPWNTEITEVGETGNDIREGAELKDYNKYKKSFSSQSFITNNSARSFTSSSNAKLTGINDGDSNSISGKGNVNTFTSQNGKKYRLQSLDEFFSDIPERKSKPRKIIKVVEESSDEDEDESEESSDDDEYSDSSLGTSSSGTSSSHLEL
notes: Apl6, β3-subunit of the yeast AP-3 complex; ear domain aa 631–809
B4: Nyv1 (yeast SNARE, AP-3 cargo with Yxxφ motif) (natural protein, UniProt Q12255 1-253, looked up)
chain: MKRFNVSYVEVIKNGETISSCFQPFQKNENYGTITSANEQITPVIFHNLIMDMVLPKVVPIKGNKVTKMSMNLIDGFDCFYSTDDHDPKTVYVCFTLVDMPKILPIRILSGLQEYESNATNELLSSHVGQILDSFHEELVEYRNQTLNSSGNGQSSNGNGQNTISDIGDATEDQIKDVIQIMNDNIDKFLERQERVSLLVDKTSQLNSSSNKFRRKAVNIKEIMWWQKVKNITLLTFTIILFVSAAFMFFYLW
notes: Nyv1, yeast SNARE; source: reconstituted into proteoliposomes

Tests used:
[1] = target: GST-Chs3(aa1-38)-Vam3(TMD) (not stated | yeast) (UniProt P29465); test: liposome flotation assay; proteoliposomes (Golgi-mimicking lipid mix) carrying a total of 1 μM cargo, incubated with purified AP-1 or AP-3 complex, floated on a sucrose step gradient; top fraction TCA-precipitated, SDS-PAGE, band of Apl4 or Apl5 quantified as percent of load; in Fig. 6E without PIPs or Arf1, in Fig. 6D also with Arf1 and PI3P or PI4P; 150 mM NaCl, 20 mM HEPES/NaOH pH 7.4, 1 mM MgCl2, 10 % glycerol, 60 min 4 °C
[2] = target: Vam3 (yeast vacuolar SNARE, AP-3 cargo with dileucine motif) (yeast) (UniProt Q12241); test: as above
[3] = target: N-myristoylated Arf1, loaded with GTP or GTPγS by Sec7ΔC (UniProt P11076); test: liposome flotation assay; empty liposomes (Golgi-mimicking lipid mix, with or without PI3P or PI4P) incubated with increasing Arf1, Sec7 GEF and GTP, then purified AP-1 or AP-3 complex; floated on a sucrose step gradient; band of Apl4 or Apl5 in the top fraction quantified
[4] = target: T1, Apl5 (δ-subunit of yeast AP-3) with …; test: cross-linking; 200 μg of purified AP-3 complex, DSSO 0.5 mM added twice, 20 min each at room temperature, quenched with Tris; trypsin, SCX, LC/MS (XlinkX, 1% FDR); settings: both partners purified
[5] = target: B3; test: as above; settings: both partners purified
[6] = target: T1, Apl5 (δ-subunit of yeast AP-3) with …; test: pull-down + SEC; subunits overproduced together in yeast; captured from cleared lysate on anti-FLAG M2 affinity gel via the C-terminal 3xFLAG-tag on Apl5 (AP-3) or Apl4 (AP-1), eluted with FLAG-peptide, run on Superose 6 Increase; 150 mM NaCl, 20 mM HEPES/NaOH pH 7.4, 1.5 mM MgCl2; Coomassie staining after SDS-PAGE; settings: partners not purified
[7] = target: T2, full-length yeast AP-3 complex (S. cerevisiae, UniProt Q08951 1-932; P46682 1-809; P38153 1-483; P47064 1-194); test: liposome flotation assay; proteoliposomes (Golgi-mimicking lipid mix) carrying a total of 1 μM cargo, incubated with purified AP-1 or AP-3 complex, floated on a sucrose step gradient; top fraction TCA-precipitated, SDS-PAGE, band of Apl4 or Apl5 quantified as percent of load; in Fig. 6E without PIPs or Arf1, in Fig. 6D also with Arf1 and PI3P or PI4P; 150 mM NaCl, 20 mM HEPES/NaOH pH 7.4, 1 mM MgCl2, 10 % glycerol, …; settings: both partners purified
T2 construct: Apl5, δ-subunit of the yeast AP-3 complex; ear domain aa 639–932; Apl6, β3-subunit of the yeast AP-3 complex; ear domain aa 631–809; Apm3, μ3-subunit of the yeast AP-3 complex; Aps3, σ-subunit of the yeast AP-3 complex; Heterotetramer with apparent equimolar stoichiometry, about 300 kDa; also called adapter protein complex 3; copies: + + +

Sequence of Vam3 (yeast vacuolar SNARE, AP-3 cargo with dileucine motif) (yeast) (Q12241 whole entry): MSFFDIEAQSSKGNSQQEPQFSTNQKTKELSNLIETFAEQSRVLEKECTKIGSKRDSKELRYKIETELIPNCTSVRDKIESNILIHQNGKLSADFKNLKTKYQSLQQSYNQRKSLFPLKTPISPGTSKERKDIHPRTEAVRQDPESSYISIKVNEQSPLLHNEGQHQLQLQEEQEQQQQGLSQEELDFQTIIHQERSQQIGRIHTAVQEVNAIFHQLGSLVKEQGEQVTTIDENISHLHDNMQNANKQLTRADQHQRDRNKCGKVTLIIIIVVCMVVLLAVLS
Sequence of N-myristoylated Arf1, loaded with GTP or GTPγS by Sec7ΔC (P11076 whole entry, stated change not applied): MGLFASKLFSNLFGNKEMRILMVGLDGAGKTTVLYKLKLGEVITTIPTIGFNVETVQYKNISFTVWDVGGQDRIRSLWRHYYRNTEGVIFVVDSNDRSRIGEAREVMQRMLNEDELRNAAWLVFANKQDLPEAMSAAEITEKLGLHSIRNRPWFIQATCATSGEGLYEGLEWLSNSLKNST
Sequence of GST-Chs3(aa1-38)-Vam3(TMD) (not stated | yeast) (P29465 other isoform, or with tags, fused parts or gaps): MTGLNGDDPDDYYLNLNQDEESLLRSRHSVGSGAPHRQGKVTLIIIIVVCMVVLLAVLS

percent of AP-3 recruited to proteoliposomes (without PIPs or Arf1) [1]: 25%
percent of AP-3 recruited to proteoliposomes (Vam3 alone) [2]: > 25%
percent of AP-3 recruited to proteoliposomes (Vam3 with low amounts of Arf1 and PIPs) [2]: 50%
percent of AP-3 recruited to proteoliposomes (without PIPs or Arf1) [2]: 25%
Molecule: full-length yeast AP-3 complex, Q08951 1-932; P46682 1-809; P38153 1-483; P47064 1-194

fold increase in membrane-bound AP-1 with both Arf1-GTP and PI3P or PI4P [3]: 2 to 3 fold
percent of the complex bound to liposomes with Arf1-GTP (no PIPs) [3]: 10%
Molecule: full-length yeast AP-1 complex (from UniProt Q12028 1-832)

Molecule: B1
binding result [4]: binds
binding result [5]: binds

Molecule: B2
binding result [5]: binds
binding result [6]: binds

Molecule: B3
binding result [6]: binds

Molecule: B4
binding result [7]: binds
